Test results as given in the supplement of paper PMC10567573.

B1: DYRK1B (parent)
chain: RFQDLVLRMLEYEPAARISPLGAL

Variants of: B1
Assay: protein stability index of a GFP-peptide fusion (GPS, HEK-293T) (PSI 1-6); higher = more stable
Conditions: c terminus: a fixed tail appended
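Note: lentivirally expressed fusions sorted by FACS into six bins by GFP to DsRed ratio, PSI derived from sequencing read proportions per bin multiplied by bin number.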

| Variant | protein stability index |
| --- | --- |
| RFQDLVLRMLMYEPAARISPLGAL | 3.73 |
| RFQDLVLRMLNYEPAARISPLGAL | 2.21 |
| RFQDLVLRMLPYEPAARISPLGAL | 3.04 |
| RFQDLVLRMLQYEPAARISPLGAL | 2.81 |
| RFQDLVLRMLRYEPAARISPLGAL | 2.66 |
| RFQDLVLRMLTYEPAARISPLGAL | 3.67 |
| RFQDLVLRMLVYEPAARISPLGAL | 3.51 |
| RFQDLVLRMLYYEPAARISPLGAL | 3.21 |
| RFQDLVLRMLEDEPAARISPLGAL | 1.99 |
| RFQDLVLRMLEEEPAARISPLGAL | 1.05 |
| RFQDLVLRMLEGEPAARISPLGAL | 1.6 |
| RFQDLVLRMLEMEPAARISPLGAL | 2.22 |
| RFQDLVLRMLENEPAARISPLGAL | 1.65 |
| RFQDLVLRMLEPEPAARISPLGAL | 2 |
| RFQDLVLRMLEQEPAARISPLGAL | 1.44 |
| RFQDLVLRMLESEPAARISPLGAL | 2.61 |
| RFQDLVLRMLETEPAARISPLGAL | 1.04 |
| RFQDLVLRMLEVEPAARISPLGAL | 3.06 |
| RFQDLVLRMLEWEPAARISPLGAL | 2.82 |
| RFQDLVLRMLEYAPAARISPLGAL | 2.87 |
| RFQDLVLRMLEYDPAARISPLGAL | 3.04 |
| RFQDLVLRMLEYFPAARISPLGAL | 2.32 |
| RFQDLVLRMLEYGPAARISPLGAL | 1.82 |
| RFQDLVLRMLEYHPAARISPLGAL | 1.76 |

| Variant | protein stability index |
| --- | --- |
| RFQDLVLRMLEYLPAARISPLGAL | 2.27 |
| RFQDLVLRMLEYNPAARISPLGAL | 2.11 |
| RFQDLVLRMLEYPPAARISPLGAL | 3.05 |
| RFQDLVLRMLEYQPAARISPLGAL | 3.79 |
| RFQDLVLRMLEYRPAARISPLGAL | 1.34 |
| RFQDLVLRMLEYSPAARISPLGAL | 2.48 |
| RFQDLVLRMLEYTPAARISPLGAL | 4.09 |
| RFQDLVLRMLEYWPAARISPLGAL | 3.37 |
| RFQDLVLRMLEYYPAARISPLGAL | 3.29 |
| RFQDLVLRMLEYEEAARISPLGAL | 2.21 |
| RFQDLVLRMLEYEFAARISPLGAL | 2.87 |
| RFQDLVLRMLEYEIAARISPLGAL | 1.72 |
| RFQDLVLRMLEYELAARISPLGAL | 5.01 |
| RFQDLVLRMLEYENAARISPLGAL | 1.45 |
| RFQDLVLRMLEYEPFARISPLGAL | 1.95 |
| RFQDLVLRMLEYEPHARISPLGAL | 5.14 |
| RFQDLVLRMLEYEPKARISPLGAL | 3.43 |
| RFQDLVLRMLEYEPMARISPLGAL | 2.57 |
| RFQDLVLRMLEYEPPARISPLGAL | 2.8 |
| RFQDLVLRMLEYEPQARISPLGAL | 2.04 |
| RFQDLVLRMLEYEPRARISPLGAL | 3.6 |
| RFQDLVLRMLEYEPWARISPLGAL | 5.07 |
| RFQDLVLRMLEYEPYARISPLGAL | 2.03 |
| RFQDLVLRMLEYEPACRISPLGAL | 3.04 |

| Variant | protein stability index |
| --- | --- |
| RFQDLVLRMLEYEPAERISPLGAL | 1.36 |
| RFQDLVLRMLEYEPAFRISPLGAL | 1.02 |
| RFQDLVLRMLEYEPAKRISPLGAL | 2.35 |
| RFQDLVLRMLEYEPAMRISPLGAL | 1.85 |
| RFQDLVLRMLEYEPANRISPLGAL | 3.65 |
| RFQDLVLRMLEYEPAPRISPLGAL | 1.44 |
| RFQDLVLRMLEYEPATRISPLGAL | 2.28 |
| RFQDLVLRMLEYEPAACISPLGAL | 2.25 |
| RFQDLVLRMLEYEPAADISPLGAL | 1.91 |
| RFQDLVLRMLEYEPAAFISPLGAL | 1.77 |
| RFQDLVLRMLEYEPAAGISPLGAL | 2.29 |
| RFQDLVLRMLEYEPAAIISPLGAL | 4.01 |
| RFQDLVLRMLEYEPAAMISPLGAL | 4.29 |
| RFQDLVLRMLEYEPAANISPLGAL | 1.46 |
| RFQDLVLRMLEYEPAAPISPLGAL | 2.75 |
| RFQDLVLRMLEYEPAASISPLGAL | 2.69 |
| RFQDLVLRMLEYEPAATISPLGAL | 1 |
| RFQDLVLRMLEYEPAAYISPLGAL | 3.04 |
| RFQDLVLRMLEYEPAARASPLGAL | 1.41 |
| RFQDLVLRMLEYEPAARDSPLGAL | 1.65 |
| RFQDLVLRMLEYEPAARESPLGAL | 2.06 |
| RFQDLVLRMLEYEPAARFSPLGAL | 2.3 |
| RFQDLVLRMLEYEPAARGSPLGAL | 1.27 |
| RFQDLVLRMLEYEPAARHSPLGAL | 1.23 |

| Variant | protein stability index |
| --- | --- |
| RFQDLVLRMLEYEPAARLSPLGAL | 2.33 |
| RFQDLVLRMLEYEPAARMSPLGAL | 2.17 |
| RFQDLVLRMLEYEPAARNSPLGAL | 1.23 |
| RFQDLVLRMLEYEPAARPSPLGAL | 1.98 |
| RFQDLVLRMLEYEPAARQSPLGAL | 2.04 |
| RFQDLVLRMLEYEPAARRSPLGAL | 1.15 |
| RFQDLVLRMLEYEPAARSSPLGAL | 2.1 |
| RFQDLVLRMLEYEPAARTSPLGAL | 1.3 |
| RFQDLVLRMLEYEPAARIAPLGAL | 1.17 |
| RFQDLVLRMLEYEPAARIDPLGAL | 1.76 |
| RFQDLVLRMLEYEPAARIEPLGAL | 3.96 |
| RFQDLVLRMLEYEPAARIGPLGAL | 1.07 |
| RFQDLVLRMLEYEPAARIKPLGAL | 3.06 |
| RFQDLVLRMLEYEPAARILPLGAL | 4.05 |
| RFQDLVLRMLEYEPAARIPPLGAL | 2.61 |
| RFQDLVLRMLEYEPAARIQPLGAL | 1.55 |
| RFQDLVLRMLEYEPAARIRPLGAL | 2.38 |
| RFQDLVLRMLEYEPAARIVPLGAL | 2.91 |
| RFQDLVLRMLEYEPAARIYPLGAL | 3.82 |
| RFQDLVLRMLEYEPAARISCLGAL | 3.75 |
| RFQDLVLRMLEYEPAARISELGAL | 2.84 |
| RFQDLVLRMLEYEPAARISFLGAL | 2.2 |
